Reference: publication PMC10567711, “Structure-guided inhibition of the cancer DNA-mutating enzyme APOBEC3A”

Legend:
A3A-E72A [1] = biological target: T1, A3A-E72A (human, UniProt P31941 1-199, E72A); assay: X-ray crystallography; 1.91 A; Cl-; ITC: 50 mM Na+/K+ phosphate pH 6.0, 50 mM NaCl, 50 mM choline acetate, 2.5 mM TCEP, 200 uM EDTA, 30 mg/mL BSA, 25 C; NMR inhibition: 50 mM Na+/K+ phosphate pH 7.4, 100 mM NaCl, 1 mM TCEP, 100 uM DSS, 10% D2O, 20 C, 140 nM A3A; conditions: protein: recombinant; hairpin, potential 6 bp stem, 4-nt loop ATTC
T1 sequence (P31941 whole entry E72A): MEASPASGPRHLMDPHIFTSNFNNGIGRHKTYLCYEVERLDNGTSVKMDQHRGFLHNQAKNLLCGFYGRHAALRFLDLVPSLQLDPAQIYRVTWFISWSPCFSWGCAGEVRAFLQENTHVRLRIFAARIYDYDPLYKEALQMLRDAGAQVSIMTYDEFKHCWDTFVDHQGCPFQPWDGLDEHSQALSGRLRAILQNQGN

A3A-E72A [2] = biological target: T1, A3A-E72A; assay: X-ray crystallography; Zn2+; 3.15 A; one copy threaded with GACC loop; ITC: 50 mM Na+/K+ phosphate pH 6.0, 50 mM NaCl, 50 mM choline acetate, 2.5 mM TCEP, 200 uM EDTA, 30 mg/mL BSA, 25 C; NMR inhibition: 50 mM Na+/K+ phosphate pH 7.4, 100 mM NaCl, 1 mM TCEP, 100 uM DSS, 10% D2O, 20 C, 140 nM A3A; conditions: protein: recombinant; hairpin, 4 bp stem incl. one AT pair, 4-nt loop CTTC

Binder: CCCATCATTCGATGGG (structured_DNA) [ATTC-hairpin]
- binding result (A3A-E72A [1]): binds

Binder: GCCACCTTCGTGGG (structured_DNA) [CTTC-hairpin]
- binding result (A3A-E72A [2]): binds
